In patent US20220025050A1 (OSE IMMUNOTHERAPEUTICS, published 2022):

How the values were obtained:
[1] = biological target: T1, biotinylated Human PD1 (AcroBiosystems, reference EP-101) (human, UniProt Q15116 25-167, limits assumed, biotinylated); test: competition ELISA: PD-L2 Fc immobilised, biotinylated PD-1 mixed with the fusion at varied concentration, streptavidin-peroxidase; blocked ligand PD-L2 [following]
T1 construct: also called biotinylated recombinant human PD-1; recombinant biotinylated PD1 protein
Method: (§1) FIG. 8: Competition PD-1/PD-L1 or PD-L2 ELISA assay. […] (D): PD-1/PD-L2 antagonist activity. […] Similar protocol as PD-L1/PD-1 assay was used for revelation. In this experiment, the bifunctional molecule comprises a humanized anti-PD1 antibody having a heavy chain variable domain as disclosed in SEQ ID NO: 24 and a light chain variable domain as disclosed in SEQ ID NO:28.
(§2) Competitive ELISA assay was performed by PD-1:PD-L1 Inhibitor Screening ELISA Assay Pair (AcroBiosystems; USA; reference EP-101). In this assay, recombinant hPDL1 was immobilized on plastic at 2 μg/ml in PBS pH 7.4 buffer. […] Same ELISA protocol was performed to assess PDL2/PD1 antagonist activity by coating PD-L2 Fc recombinant protein (Sinobiological, #10292-H02H).

[2] = biological target: T2, recombinant hPD1 (Sino Biologicals, reference 10377-H08H) (human, UniProt Q15116 25-167); test: ELISA: hPD-1 immobilized, anti-human Fc peroxidase
T2 construct: also called Human recombinant PD-1 protein; PD1-His recombinant protein

[3] = biological target: T1, biotinylated Human PD1 (AcroBiosystems, …); test: competition ELISA: PD-L1 immobilized, biotinylated PD-1 at fixed concentration, antibody varied
Method: as §1, §2

T1 sequence (Q15116 25-167 limits assumed): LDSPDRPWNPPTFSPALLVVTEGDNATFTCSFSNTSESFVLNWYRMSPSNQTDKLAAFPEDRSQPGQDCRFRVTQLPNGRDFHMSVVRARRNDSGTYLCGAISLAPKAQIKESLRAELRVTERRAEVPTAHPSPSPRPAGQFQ
T2 sequence (Q15116 25-167 limits assumed): as above

B1: Humanized anti-PD1 (VH SEQ ID NO:24, VL SEQ ID NO:28) VH fusion to Cytokine-protein A (IL-7) (other, not shown: small tags and cut ends)
heavy: QIQLVQSGSELKKPGASVKVSCKASGYTFTHYAMNWVRQAPGQGLEWMGWINTNTGEPTYAQGFTGRFVFSLDTSVSTAYLQISSLKAEDTAVYYCAREREPGMDNWGQGTLVTVSS
VL: DVVMTQSPLSLPVTLGQPASISCRSSQSLVHANTNTYLEWYQQRPGQSPRLLIYKVSNRFSGVPDRFSGSGSGTDFTLKISRVEAEDVGVYYCFQGTHVPNTFGQGTKLEIK
notes: Bifunctional molecule; also called Anti-PD1 fused to Cytokine-protein A (IL-7), VH fusion; anti PD-1 VH IL-7
B1 was tested, and the “IC50 (read off the curve)” value [1] was ~0.7 µg/mL.

B2: Humanized anti-PD1 (VH SEQ ID NO:24, VL SEQ ID NO:28) VH fusion to CD80 (other, not shown: small tags and cut ends)
heavy: QIQLVQSGSELKKPGASVKVSCKASGYTFTHYAMNWVRQAPGQGLEWMGWINTNTGEPTYAQGFTGRFVFSLDTSVSTAYLQISSLKAEDTAVYYCAREREPGMDNWGQGTLVTVSS
VL: DVVMTQSPLSLPVTLGQPASISCRSSQSLVHANTNTYLEWYQQRPGQSPRLLIYKVSNRFSGVPDRFSGSGSGTDFTLKISRVEAEDVGVYYCFQGTHVPNTFGQGTKLEIK
notes: Bifunctional molecule; also called anti PD-1 VH CD80
For B2, the “IC50 (read off the curve)” value [1] was ~0.9 µg/mL.

B3: Anti-PD1 Ab alone, no fusion, FIG. 4 / Table 1 (antibody, V domains shown)
VH: QIQLVQSGSELKKPGASVKVSCKASGYTFTHYAMNWVRQAPGQGLEWMGWINTNTGEPTYAQGFTGRFVFSLDTSVSTAYLQISSLKAEDTAVYYCAREREPGMDTWGQGTLVTVSS
VL: DVVMTQSPLSLPVTLGQPASISCRSSQSLVHANTNTYLEWYQQRPGQSPRLLIYKVSNRFSGVPDRFSGSGSGTDFTLKISRVEAEDVGVYYCFQGTHVPNTFGQGTKLEIKR
An EC50 [2] of 0.00167 µg/mL was found for B3 in this work.

B4: Anti-PD1 Ab alone, no fusion (FIG. 8 / Table 5) (antibody, V domains shown)
VH: QIQLVQSGSELKKPGASVKVSCKASGYTFTHYAMNWVRQAPGQGLEWMGWINTNTGEPTYAQGFTGRFVFSLDTSVSTAYLQISSLKAEDTAVYYCAREREPGMDNWGQGTLVTVSS
VL: DVVMTQSPLSLPVTLGQPASISCRSSQSLVHANTNTYLEWYQQRPGQSPRLLIYKVSNRFSGVPDRFSGSGSGTDFTLKISRVEAEDVGVYYCFQGTHVPNTFGQGTKLEIK
notes: also called anti-PD1 antibody alone
An IC50 [3] of 0.184 µg/mL was found for B4 in this work.
